T1: OsMADS45 aa 50-198 (Oryza sativa, UniProt P0C5B0 50-198)
T1 construct: bait, Gal4 DBD fusion; also called PN20231; O. sativa MADS box protein MADS45
T1 sequence: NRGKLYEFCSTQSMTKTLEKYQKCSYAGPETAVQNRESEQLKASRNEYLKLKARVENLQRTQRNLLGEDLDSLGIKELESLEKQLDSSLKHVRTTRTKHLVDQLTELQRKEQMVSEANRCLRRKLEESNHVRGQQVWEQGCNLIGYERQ

T2: OsMADS8 aa 79-248 (Oryza sativa, UniProt Q9SAR1 79-248)
T2 construct: prey, AD fusion; also called PN20778
T2 sequence: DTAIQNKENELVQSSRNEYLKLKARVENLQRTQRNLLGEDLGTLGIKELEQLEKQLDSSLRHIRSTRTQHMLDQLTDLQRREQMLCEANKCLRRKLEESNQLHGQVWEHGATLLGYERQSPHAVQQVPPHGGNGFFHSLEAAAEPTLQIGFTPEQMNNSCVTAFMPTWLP

T3: OsMADS1 aa 70-257 (Oryza sativa, UniProt A2XDY1 70-257)
T3 construct: prey, AD fusion; also called PN19788
T3 sequence: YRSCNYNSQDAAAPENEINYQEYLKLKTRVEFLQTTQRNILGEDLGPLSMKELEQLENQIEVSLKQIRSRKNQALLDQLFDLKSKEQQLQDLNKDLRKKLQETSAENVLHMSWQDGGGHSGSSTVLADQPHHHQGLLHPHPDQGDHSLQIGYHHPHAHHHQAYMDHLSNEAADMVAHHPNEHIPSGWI

T4: OsMADS8 aa 75-238 (Oryza sativa, UniProt Q9SAR1 75-238)
T4 construct: prey, AD fusion; also called PN20778
T4 sequence: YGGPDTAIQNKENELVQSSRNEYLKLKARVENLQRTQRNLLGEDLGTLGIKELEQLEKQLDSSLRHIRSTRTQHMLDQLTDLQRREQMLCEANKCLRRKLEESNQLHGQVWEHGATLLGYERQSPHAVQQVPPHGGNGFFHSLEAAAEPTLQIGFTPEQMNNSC

T5: OsMADS45 aa 83-234 (Oryza sativa, UniProt P0C5B0 83-234)
T5 construct: prey, AD fusion; also called PN20231
T5 sequence: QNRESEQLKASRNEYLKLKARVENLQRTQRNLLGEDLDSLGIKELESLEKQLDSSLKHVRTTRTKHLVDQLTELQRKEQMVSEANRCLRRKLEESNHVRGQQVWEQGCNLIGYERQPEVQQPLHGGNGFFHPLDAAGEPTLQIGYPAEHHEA

T6: OsRAP1B aa 1-179 (Oryza sativa, UniProt Q10CQ1 1-179)
T6 construct: prey, AD fusion; also called PN20232
T6 sequence: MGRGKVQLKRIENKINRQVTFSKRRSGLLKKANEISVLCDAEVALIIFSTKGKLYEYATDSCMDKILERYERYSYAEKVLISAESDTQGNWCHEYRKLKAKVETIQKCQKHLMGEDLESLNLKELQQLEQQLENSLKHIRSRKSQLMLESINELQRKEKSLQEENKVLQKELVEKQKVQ

T7: OsSGT1 aa 200-368 (Oryza sativa, UniProt Q0JL44 200-367)
T7 construct: bait, Gal4 DBD fusion; also called PN20285
T7 sequence: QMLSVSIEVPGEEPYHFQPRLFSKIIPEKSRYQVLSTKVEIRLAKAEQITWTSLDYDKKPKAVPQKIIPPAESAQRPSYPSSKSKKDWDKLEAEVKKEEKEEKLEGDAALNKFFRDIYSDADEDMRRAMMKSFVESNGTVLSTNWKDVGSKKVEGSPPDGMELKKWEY

T8: OsMADS45 aa 56-249 (Oryza sativa, UniProt P0C5B0 56-249)
T8 construct: prey, AD fusion; also called PN20231
T8 sequence: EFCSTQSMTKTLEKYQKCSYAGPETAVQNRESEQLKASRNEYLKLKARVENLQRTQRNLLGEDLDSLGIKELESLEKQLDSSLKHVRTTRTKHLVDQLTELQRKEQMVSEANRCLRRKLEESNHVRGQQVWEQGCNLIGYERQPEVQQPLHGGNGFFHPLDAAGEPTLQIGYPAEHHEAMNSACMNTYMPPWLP

T9: OsMADS45 aa 61-248 (Oryza sativa, UniProt P0C5B0 61-248)
T9 construct: prey, AD fusion; also called PN20231
T9 sequence: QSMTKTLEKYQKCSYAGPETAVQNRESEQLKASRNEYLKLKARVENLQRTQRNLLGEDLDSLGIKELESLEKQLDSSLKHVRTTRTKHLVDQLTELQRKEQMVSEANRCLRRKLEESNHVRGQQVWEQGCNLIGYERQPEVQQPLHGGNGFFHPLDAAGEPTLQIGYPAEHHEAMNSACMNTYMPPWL

B1: OsMADS14 aa 82-197 (other)
chain: SAESDTQGNWCHEYRKLKAKVETIQKCQKHLMGEDLESLNLKELQQLEQQLENSLKHIRSRKSQLMLESINELQRKEKSLQEENKVLQKELVEKQKVQKQQVQWDQTQPQTSSSSS
notes: prey, AD fusion; also called PN20910
B2: OsMADS6 aa 50-200 (other)
chain: SRGKLYEFGSAGITKTLERYQHCCYNAQDSNNALSETQSWYHEMSKLKAKFEALQRTQRHLLGEDLGPLSVKELQQLEKQLECALSQARQRKTQLMMEQVEELRRKERQLGEINRQLKHKLEVEGSTSNYRAMQQASWAQGAVVENGAAYV
notes: bait, Gal4 DBD fusion; also called PN20233
B3: OsSGT1 aa 9-227 (other)
chain: LESKAKAAFVDDDFELAAELYTQAIEASPATAELYADRAQAHIKLGNYTEAVADANKAIELDPSMHKAYLRKGAACIRLEEYQTAKAALELGYSFASGDSRFTRLMKECDERIAEELTEVPVKKAEDGAAAPSVASFVEEKDDAANMDNTPPMVEVKPKYRHDFYNSATEVVLTIFAKGVPAENVVVDFGEQMLSVSIEVPGEEPYHFQPRLFSKIIPE
notes: prey, AD fusion; also called PN20285
B4: OsFDRMADS8 aa 60-160 (other)
chain: APSLQKTIDRYKAYTKDHVNNKTIQQDIQQVKDDTLGLAKKLEALDESRRKILGENLEGCSIEELRGLEMKLEKSLHNIRLKKTELLERQIAKLKEKERTL
notes: bait, Gal4 DBD fusion; also called PN20698
B5: OsRAP1B aa 30-180 (other)
chain: KKANEISVLCDAEVALIIFSTKGKLYEYATDSCMDKILERYERYSYAEKVLISAESDTQGNWCHEYRKLKAKVETIQKCQKHLMGEDLESLNLKELQQLEQQLENSLKHIRSRKSQLMLESINELQRKEKSLQEENKVLQKELVEKQKVQK
notes: bait, Gal4 DBD fusion; also called PN20232
B6: OsPN29117 aa 29-160 (other)
chain: VPAHSTFGELKGVLTQATGVEPERQRLFFRGKEKSDNEFLHTAGVKDGAKLLLLEKPAPANVEQRAEPVIMDESMMKACEAVGRVRAEVDRLSAKVCDLEKSVFAGRKIEDKDFVVLTELLMMELLKLDGIE
notes: prey, AD fusion
B7: OsPN23495 aa 12-198 (other)
chain: PPAAAEDGRVTSHVDPFLVEALDNPRHRLMVLRMAMDIQKFMQNPQLHEFEFQHFPTSYLRCAAHRVAQHYGLETTVADSLVDGSVSKIVAKKTSESKLPVIALSEVPSKQARNEHEAAEKLKFVICPRPKAFQNGAGDAGAKNNAARTVEERIEEYNKARARIFNGSISDIEGTSDLGALSVARDE
notes: prey, AD fusion
B8: OsPN23495 aa 39-165 (other)
chain: RLMVLRMAMDIQKFMQNPQLHEFEFQHFPTSYLRCAAHRVAQHYGLETTVADSLVDGSVSKIVAKKTSESKLPVIALSEVPSKQARNEHEAAEKLKFVICPRPKAFQNGAGDAGAKNNAARTVEERI
notes: prey, AD fusion; also called Novel protein PN23495
B9: OsRAP1B aa 1-188 (other)
chain: MGRGKVQLKRIENKINRQVTFSKRRSGLLKKANEISVLCDAEVALIIFSTKGKLYEYATDSCMDKILERYERYSYAEKVLISAESDTQGNWCHEYRKLKAKVETIQKCQKHLMGEDLESLNLKELQQLEQQLENSLKHIRSRKSQLMLESINELQRKEKSLQEENKVLQKELVEKQKVQKQQLQWDQT
notes: prey, AD fusion; also called PN20232
B10: OsMADS14 aa 124-223 (other)
chain: ELQQLEQQLENSLKHIRSRKSQLMLESINELQRKEKSLQEENKVLQKELVEKQKVQKQQVQWDQTQPQTSSSSSSFMMREALPTTNISNYPAAAGERIED
notes: as for B1
B11: PN23949 aa 244-418 (other)
chain: HKLKSSLILMPMVSLLLLLLIRVLGRNRISPSPALSTLPKDEVERMVEEADKFAQEDKEKRDAIDTKNQADSVVYQTEKQLKELGDKVPAPVKEKVDAKLNELKEAIAGGSTQSMKDAMAALNEEVMQIGQAMYNQQPNAGAAGPTPGADAGPTSSGGKGPNDGDVIDADFTDSN
notes: prey, AD fusion; also called HSP70-like
B12: OsPN29117 aa 11-160 (other)
chain: GPAVRLRVSHGASFRDVAVPAHSTFGELKGVLTQATGVEPERQRLFFRGKEKSDNEFLHTAGVKDGAKLLLLEKPAPANVEQRAEPVIMDESMMKACEAVGRVRAEVDRLSAKVCDLEKSVFAGRKIEDKDFVVLTELLMMELLKLDGIE
notes: prey, AD fusion

For assay [1], the target named is T1, OsMADS45 aa 50-198. In words: Y2H; output trait library. The essentials: (§1)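 Protein-protein interactions were detected in an automated, high-throughput yeast two-hybrid assay from Myriad Genetics Inc. (Salt Lake City, Utah), with a bait clone encoding a defined amino-acid fragment of a rice protein screened against the input trait or output trait rice prey library. Interacting proteins were identified by BLAST comparison of the encoding sequences of retrieved prey clones against databases.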

The target in a further assay is T2, OsMADS8 aa 79-248. The assay can be described thus: Y2H; output trait library. The essentials:
as §1

Another assay concerns the target T3, OsMADS1 aa 70-257. The assay can be described thus: Y2H; output trait library. The essentials: as §1
In a further assay the target is T4, OsMADS8 aa 75-238. The assay can be described thus: Y2H; output trait library. The method in brief:
as §1

Another assay concerns the target T5, OsMADS45 aa 83-234. In words: Y2H; output trait library. The method in brief:
as §1

In another assay the target is T6, OsRAP1B aa 1-179. The assay can be described thus: Y2H; output trait library. The essentials:
as §1

For the next assay, the target named is T7, OsSGT1 aa 200-368. In words: Y2H; output trait library. The method in brief: (§2)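 Protein interactions were tested in an automated, high-throughput yeast two-hybrid screen supplied by Myriad Genetics Inc. Fragments of rice proteins, defined by amino-acid range, served as bait against rice prey clone libraries. Interacting prey clones were retrieved from the output trait library. The sequences encoding the retrieved fragments were compared by BLAST analysis against databases to identify the full-length genes. Each value records whether an interaction was detected.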

A further assay deals with T8, OsMADS45 aa 56-249. In words: Y2H; output trait library. The essentials: as §1
The next assay addresses T9, OsMADS45 aa 61-248. The assay can be described thus: Y2H; output trait library. The essentials: as §1
The next assay concerns the target T10, OsHSP70 aa 138-360 (Oryza sativa).
T10 construct: bait, Gal4 DBD fusion; also called PN20775; heat shock protein hsp70
The assay can be described thus: Y2H; output trait library. The essentials: as §2

Assay [2] has as its target T1, OsMADS45 aa 50-198. In words: Y2H; input trait library. The method in brief: as §1
The assay “OsMADS6 aa 50-200” has as its target B2. The assay can be described thus: Y2H; input trait library. The essentials: as §1

T10 sequence (chain, as listed by the source): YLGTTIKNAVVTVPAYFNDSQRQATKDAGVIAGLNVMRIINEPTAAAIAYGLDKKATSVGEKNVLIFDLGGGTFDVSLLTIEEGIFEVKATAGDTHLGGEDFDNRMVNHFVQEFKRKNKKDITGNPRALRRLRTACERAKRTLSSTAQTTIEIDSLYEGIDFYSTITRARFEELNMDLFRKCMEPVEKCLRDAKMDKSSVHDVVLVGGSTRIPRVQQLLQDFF

On to B1, for which the binding result with OsMADS45 aa 50-198 [1] was “binds”. Take B2: the binding result in the assay with OsMADS8 aa 79-248, in the assay with OsMADS1 aa 70-257, in the assay with OsMADS8 aa 75-238, with OsMADS45 aa 83-234 and with OsRAP1B aa 1-179 was “binds” throughout. Regarding B3, the binding result with OsSGT1 aa 200-368 is listed as “binds”. Consider B4, for which, in the assay with OsMADS45 aa 56-249, the binding result is “binds”. In the case of B5, the binding result with OsMADS45 aa 61-248 is “binds”. Regarding B6, the binding result with OsHSP70 aa 138-360 was “binds”. As for B7, the binding result with OsMADS45 aa 50-198 [2] is “binds”. Turning to B8, the binding result with OsMADS45 aa 50-198 [2] is listed as “binds”. In the case of B9, in the assay with OsMADS6 aa 50-200, the binding result is listed as “binds”. As for B10, the binding result with OsMADS45 aa 50-198 [1] is “binds”. Take B11: in the assay with OsSGT1 aa 200-368, the binding result was “binds”. Take B12: the binding result with OsHSP70 aa 138-360 is “binds”.

(Values after US20060253917A1 (published 2006).)
